Assay results from CN116514962A (THE AFFILIATED HOSPITAL OF GUANGZHOU MEDICAL UNIV GUANGZHOU …, dated 2023).

Legend:
SARS病毒N蛋白 = SARS病毒N蛋白 (SARS病毒 (SARS-CoV), UniProt P59595 1-422); experiment: ELISA
MERS病毒N蛋白 = MERS病毒N蛋白 (MERS病毒 (MERS-CoV), UniProt K9N4V7 1-411); experiment: ELISA
人冠状病毒HKU1 N蛋白 = target: T1, 人冠状病毒HKU1 N蛋白 (人冠状病毒HKU1 (HCoV-HKU1), UniProt Q5MQC6 1-441); experiment: ELISA
T1 sequence: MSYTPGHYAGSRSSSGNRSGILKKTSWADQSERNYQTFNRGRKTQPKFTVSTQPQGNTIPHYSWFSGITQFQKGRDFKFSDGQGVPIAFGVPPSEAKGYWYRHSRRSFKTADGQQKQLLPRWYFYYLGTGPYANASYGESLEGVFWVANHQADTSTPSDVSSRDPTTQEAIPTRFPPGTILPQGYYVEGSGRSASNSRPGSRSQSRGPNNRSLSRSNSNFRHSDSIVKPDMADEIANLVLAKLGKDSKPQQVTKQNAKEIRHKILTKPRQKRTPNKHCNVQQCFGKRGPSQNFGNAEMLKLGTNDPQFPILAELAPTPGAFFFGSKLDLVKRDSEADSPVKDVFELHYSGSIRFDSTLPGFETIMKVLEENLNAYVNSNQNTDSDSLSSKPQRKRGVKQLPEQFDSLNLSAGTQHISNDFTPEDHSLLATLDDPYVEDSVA

人冠状病毒OC43 N蛋白 = target: T2, 人冠状病毒OC43 N蛋白 (人冠状病毒OC43 (HCoV-OC43), UniProt P33469 1-448); experiment: ELISA
T2 sequence: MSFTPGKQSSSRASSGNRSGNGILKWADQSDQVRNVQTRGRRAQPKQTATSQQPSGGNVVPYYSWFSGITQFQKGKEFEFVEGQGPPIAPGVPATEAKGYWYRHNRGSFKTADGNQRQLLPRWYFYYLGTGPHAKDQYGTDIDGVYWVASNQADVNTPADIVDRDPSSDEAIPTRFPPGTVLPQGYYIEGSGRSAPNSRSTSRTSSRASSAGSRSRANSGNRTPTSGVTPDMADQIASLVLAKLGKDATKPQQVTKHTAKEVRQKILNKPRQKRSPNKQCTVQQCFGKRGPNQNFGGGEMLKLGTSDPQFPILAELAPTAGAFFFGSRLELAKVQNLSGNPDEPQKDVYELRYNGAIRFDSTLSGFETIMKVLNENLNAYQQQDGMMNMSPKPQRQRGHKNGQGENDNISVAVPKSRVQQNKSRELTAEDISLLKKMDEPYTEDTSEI

新型冠状病毒(SARS-CoV-2)N蛋白 = 新型冠状病毒(SARS-CoV-2)N蛋白 (SARS-CoV-2, UniProt P0DTC9 1-419)

Row | Binder | binding result (SARS病毒N蛋白) | binding result (MERS病毒N蛋白) | binding result (人冠状病毒HKU1 N蛋白) | binding result (人冠状病毒OC43 N蛋白) | Kd (新型冠状病毒(SARS-CoV-2)N蛋白) [nM]
1 | N3抗体 (N蛋白特异性单克隆抗体N3) (antibody, V domains shown) VH: QMQLVQSGAEVKRPGSSVKVSCKASGGTFSVYAISWVRQAPGQGLEWMGGIIPIFGTANYAQKFQGRVTLTADESTSTAYMELSSLSSEDTAVYYCARGGYCSGANCPKWGEWSHSYNYMDVWGKGTTVTVSS VL: not shown | binds | no binding | no binding | no binding | 
2 | N5抗体 (N蛋白特异性单克隆抗体N5) (antibody, V domains shown) VH: QVQLVQSGAEVKKPGSSVKVSCKASGGTFSSYAIGWVRQAPGQGLEWMGAIIPIFGTTIFAQKFQGRVTITADESTTTAYMELSSLRSDDTAVYYCARGGGGVERGVILTRWFDPWGQGTLVTVSS VL: QSVLTQPPSVSAAPGQKVTLSCSGSSSNIGNNHVSWYQQLPGTAPKLLIYDNNKRPSGIPDRFSGSKSGTSATLGITGLQTGDEADYYCGTWDNSLSAGVFGGGTKLTVV | binds | no binding | no binding | no binding | < 0.001
3 | N31抗体 (N蛋白特异性单克隆抗体N31) (antibody, V domains shown) VH: QMQLVQSGAEVKKPGSSVKVSCKASGGTFSSYGISWVRQAPGQGLEWMGGIIPILGTANYAQRFQGRIALTADESTSTAYMEVSSLRSEDTAVYYCARGMWSNPPGYCCSYMDVWGKGTTVTVSS VL: EIVLTQSPATLSVSPGERVTLACRASQSLRSKLAWYQQKPGQAPRLLIYDASTRATGFPARFSGSGSGTEFTLTISSLQSEDFAVYYCQQYSNWPRTFGQGTKLEIK | binds | no binding | no binding | no binding | < 0.001
4 | N83抗体 (N蛋白特异性单克隆抗体N83) (antibody, V domains shown) VH: QVQLQESGPRLVKSSETLSLTCTVSGGSISSGSYYWNWIRQPAGKGLEWIGRVYISGVTSYNPSLKSRVTISLDISKNQFSLQLTSVTAADSAVYYCARGGMAVGAPLYYYFYGMDVWGQGTTVTVSS VL: DVVMTQSPLSLPVTPGEPASISCRSSQSLLHSNGYNYVDWYLQKPGQSPQLMIYLGSNRASGVPDRFSGSGSGTHFTLKISRVEAEDVGVYYCMQALQTLSITFGQGTRLEIK | binds | no binding | no binding | no binding | 1.76
5 | 3B7抗体 (N蛋白特异性单克隆抗体3B7) (antibody, V domains shown) VH: QMQLVQSGAEVKKPGASVRVSCKVSGYSLTELPMHWVRQAPGKGLEWVGSFDPQDAETTYAQRFQGRVAMTEDTSTDTAYMELSSLRSEDTAVYYCATPAPTIVGVVIYALHIWGQGTMVTVSS VL: EIVLTQSPGTLSLSPGERATLSCRASQRVSDNSLAWYQQKPGQAPSLLIFAASIRAPGIPDRISGTGSGTDFTLTINRLEPEDFVVYFCLQYTTSPPLTFGGGTKLEIK | binds | no binding | no binding | no binding | 1.94
